1 molecule from article PMC3563936 can be followed below.

The target of the data set is T1, Dpo4 (Y-family DNA polymerase) (Sulfolobus solfataricus, UniProt Q97W02 1-352).
T1 sequence: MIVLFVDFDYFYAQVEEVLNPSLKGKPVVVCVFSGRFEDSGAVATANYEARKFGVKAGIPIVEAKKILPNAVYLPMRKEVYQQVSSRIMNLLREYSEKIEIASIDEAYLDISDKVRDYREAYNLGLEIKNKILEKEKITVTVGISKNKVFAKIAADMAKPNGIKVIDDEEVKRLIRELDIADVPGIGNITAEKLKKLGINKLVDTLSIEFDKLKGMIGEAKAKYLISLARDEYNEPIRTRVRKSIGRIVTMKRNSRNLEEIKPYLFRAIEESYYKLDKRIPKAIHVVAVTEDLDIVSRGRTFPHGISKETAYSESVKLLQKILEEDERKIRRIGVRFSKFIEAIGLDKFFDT
The experiment in a line: X-ray crystallography.

B1: 14/18-mer primer/template DNA (dsDNA)
DNA 1: GGGGGAAGGATTCC
DNA 2: TCATGGAATCCTTCCCCC
On to B1, for which the binding result is listed as “binds”.
